From the supplement of paper PMC12042874
± gives the uncertainty stated by the source.

Assay: amyloid nucleation score (Sup35N fusion, yeast selection) (log enrichment); library NNK1; higher = more nucleation; inactive = no reads after selection
Procedure, shortened: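 After 24 hours of induction with 100 μM copper sulfate, psi-negative yeast expressing peptides of 20 random codons fused to Sup35N were grown for 7 days at 30°C on medium lacking adenine and uracil. Input and output plasmid inserts were sequenced with Illumina, and sequences with under 100 input reads were discarded. Scores for nucleation are the DiMSum log enrichment of output over input reads, centred on the mode score of non-aggregating sequences.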

Row | Substance | amyloid nucleation score
1 | DDMVPNWARVTCLSQNWL | 0.385 ± 0.54
2 | TYSGYFVLAIISPRLDRLFT | -1.1 ± 0.58
3 | ITLRVLFFRGKVLFTSGIQE | 0.71 ± 1.1
4 | HEFHRLDVAVYRG | -0.132 ± 0.29
5 | MYCITDEVNRYKCCKTGKEF | 0.634 ± 0.32
6 | GKRSDIVLMLLIEMGHMLSQ | 3.1 ± 0.13
7 | KTRNCTNFWLQRGTW | -0.28 ± 0.76
8 | VFHVAKSRRVTHPSILISL | 1.53 ± 0.74
9 | YHPRTSYFCDVVFRGPERGN | 1.87 ± 0.69
10 | GESRGS | 0.473 ± 0.43
11 | DLLVNCDAVKLVYLSGYVDV | 0.342 ± 0.23
12 | YILGVRSSYSMFMESQCL | 0.543 ± 0.23
13 | GEQGNPIIESSREFSSVEHN | 4.33 ± 0.078
